Data taken from US20110237518A1 (ONCOTHERAPY SCIENCE, published 2011).
Blank lines part the entries; values can stand above or below the binder they belong to.

Tests used:
[1] = biological target: T1, FLAG-tagged ZNF224 (ZNF224-FLAG), pCAGGSc-ZNF224-FLAG (human, UniProt Q9NZL3 1-707); assay: co-IP with anti-HA rat antibody from co-transfected Cos7 cells
T1 construct: Whole open reading frame of ZNF224 in frame with a C-terminal FLAG-tag, expressed in UM-UC-3 or COS7 cells; also called exogenous ZNF224; not shown: C-terminal FLAG-tag from the pCAGGScFLAG vector
Experimental: (§1) To confirm the interaction between DEPDC1 and ZNF224 in bladder cancer cells and identify the ZNF224-binding region in DEPDC1, the immunoprecipitation experiment was carried out as follows. First, it was confirmed interaction between endogenous DEPDC1 and exogenous ZNF224 by immunoprecipitation experiments using anti-DEPDC1 polyclonal antibody for immunoprecipitation and anti-FLAGM2 antibody (Amersham) for immunoblotting. To further determine the ZNF224-binding region in DEPDC1, it was cloned six partial constructs of DEPDC1 (DEPDC1₁₋₁₄₇, DEPDC1₁₄₁₋₃₀₀, DEPDC1₁₇₇₋₅₉₇, DEPDC1₃₀₀₋₆₆₉, DEPDC1₅₈₇₋₇₄₀ and DEPDC1₆₅₄₋₈₁₁) into appropriate sites of COOH-terminal HA-tagged pCAGGS vector. The nucleotide sequence of each clones were determined with an ABI Prism 3700 DNA sequencer (Applied Biosystems, Foster City, Calif.), using each primer. Cell extracts from Cos7 cell line, transfected with each of plasmids expressing one of these six partial segments of DEPDC1, were precleared by incubation at 4 degrees C. for 1 hour with 100 micro 1 of protein G-agarose beads in final volumes of 2 mL of immunoprecipitation buffer (0.5% NP40, 50 mmol/L Tris-HCl, 150 mmol/L NaCl) in the presence of proteinase inhibitor. After centrifugation at 1,000 rpm for 5 minutes at 4 degrees C., the supernatants were incubated at 4 degrees C. with anti-HA rat for 1 hours. […]

[2] = biological target: T1, FLAG-tagged ZNF224 (ZNF224-FLAG), …; assay: co-IP with anti-HA antibody from co-transfected Cos7 cells
Experimental: as §1

T1 sequence (Q9NZL3 whole entry M118V/H562R): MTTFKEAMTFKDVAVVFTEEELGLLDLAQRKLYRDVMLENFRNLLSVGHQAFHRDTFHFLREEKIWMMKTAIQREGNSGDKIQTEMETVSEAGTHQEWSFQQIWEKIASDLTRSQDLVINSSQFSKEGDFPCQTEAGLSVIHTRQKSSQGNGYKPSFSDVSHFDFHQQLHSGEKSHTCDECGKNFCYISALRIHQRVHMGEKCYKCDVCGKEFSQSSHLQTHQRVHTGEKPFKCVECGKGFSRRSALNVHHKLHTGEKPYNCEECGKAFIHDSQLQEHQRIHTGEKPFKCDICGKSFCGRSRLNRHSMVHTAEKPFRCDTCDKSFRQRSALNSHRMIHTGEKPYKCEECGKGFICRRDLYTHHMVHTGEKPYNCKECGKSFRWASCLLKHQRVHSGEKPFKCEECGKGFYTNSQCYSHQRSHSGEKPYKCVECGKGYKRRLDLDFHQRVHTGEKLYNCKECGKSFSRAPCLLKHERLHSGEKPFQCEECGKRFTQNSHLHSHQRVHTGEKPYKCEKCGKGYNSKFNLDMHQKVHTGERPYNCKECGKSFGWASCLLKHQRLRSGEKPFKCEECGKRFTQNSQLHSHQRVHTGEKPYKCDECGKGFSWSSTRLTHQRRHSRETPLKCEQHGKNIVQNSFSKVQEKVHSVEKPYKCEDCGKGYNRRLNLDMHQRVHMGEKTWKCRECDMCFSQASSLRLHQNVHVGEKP

binding result [1]: binds
B1: DEPDC1 300-669, COOH-terminal HA-tagged partial construct (other)
chain: VNILVVCGYITVSDRSSGIHKIQDDPQSSKFLHLNNLNSFKSTECLLLSLLHREKNKEESDSTERLQISNPGFQERCAKKMQLVNLRNRRVSANDIMGGSCHNLIGLSNMHDLSSNSKPRCCSLEGIVDVPGNSSKEASSVFHQSFPNIEGQNNKLFLESKPKQEFLLNLHSEENIQKPFSAGFKRTSTLTVQDQEELCNGKCKSKQLCRSQSLLLRSSTRRNSYINTPVAEIIMKPNVGQGSTSVQTAMESELGESSATINKRLCKSTIELSENSLLPASSMLTGTQSLLQPHLERVAIDALQLCCLLLPPPNRRKLQLLMRMISRMSQNVDMPKLHDAMGTRSLMIHTFSRCVLCCAEEVDLDELLAG
notes: The forward primer carries an added ACCATG, so an extra start Met may precede residue 300; not shown: C-terminal HA-tag from pCAGGScHA vector

binding result [1]: binds
B2: DEPDC1 587-740, COOH-terminal HA-tagged partial construct (other)
chain: QSLLQPHLERVAIDALQLCCLLLPPPNRRKLQLLMRMISRMSQNVDMPKLHDAMGTRSLMIHTFSRCVLCCAEEVDLDELLAGRLVSFLMDHHQEILQVPSYLQTAVEKHLDYLKKGHIENPGDGLFAPLPTYSYCKQISAQEFDEQKVSTSQA
notes: The forward primer carries an added ACCATG, so an extra start Met may precede residue 587; not shown: C-terminal HA-tag from pCAGGScHA vector

binding result [2]: no binding
B3: DEPDC1 177-597, COOH-terminal HA-tagged partial construct (other)
chain: DNRELSQEDVEEVWRYVILIYLQTILGVPSLEEVINPKQVIPQYIMYNMANTSKRGVVILQNKSDDLPHWVLSAMKCLANWPRSNDMNNPTYVGFERDVFRTIADYFLDLPEPLLTFEYYELFVNILVVCGYITVSDRSSGIHKIQDDPQSSKFLHLNNLNSFKSTECLLLSLLHREKNKEESDSTERLQISNPGFQERCAKKMQLVNLRNRRVSANDIMGGSCHNLIGLSNMHDLSSNSKPRCCSLEGIVDVPGNSSKEASSVFHQSFPNIEGQNNKLFLESKPKQEFLLNLHSEENIQKPFSAGFKRTSTLTVQDQEELCNGKCKSKQLCRSQSLLLRSSTRRNSYINTPVAEIIMKPNVGQGSTSVQTAMESELGESSATINKRLCKSTIELSENSLLPASSMLTGTQSLLQPHLERV
notes: not shown: C-terminal HA-tag from pCAGGScHA vector

binding result [2]: no binding
B4: DEPDC1 1-147, COOH-terminal HA-tagged partial construct (other)
chain: MESQGVPPGPYRATKLWNEVTTSFRAGMPLRKHRQHFKKYGNCFTAGEAVDWLYDLLRNNSNFGPEVTRQQTIQLLRKFLKNHVIEDIKGRWGSENVDDNNQLFRFPATSPLKTLPRRYPELRKNNIENFSKDKDSIFKLRNLSRRT
notes: as for B3
